Data: PMC12095075

Biological target: HIF2A N-terminal region (bHLH-PAS);BMAL1 N-terminal region (bHLH-PAS) (mouse;mouse) (UniProt P97481+Q9WTL8)
Experiment: SPR
Conditions: 1:1 fit, error is fit error, SPR: 20 mM MES pH 5.5, 300 mM NaCl, 0.05% Tween-20, 0.02% BSA, EMSA: 10 mM MES pH 6.0, 50 mM KCl, 1 mM DTT, 2.5% glycerol, 0.05% NP-40, 5 mM MgCl2, room …

Chain of HIF2A N-terminal region (bHLH-PAS);BMAL1 N-terminal region (bHLH-PAS) (mouse;mouse) (P97481 3-361, chain 1 of 2): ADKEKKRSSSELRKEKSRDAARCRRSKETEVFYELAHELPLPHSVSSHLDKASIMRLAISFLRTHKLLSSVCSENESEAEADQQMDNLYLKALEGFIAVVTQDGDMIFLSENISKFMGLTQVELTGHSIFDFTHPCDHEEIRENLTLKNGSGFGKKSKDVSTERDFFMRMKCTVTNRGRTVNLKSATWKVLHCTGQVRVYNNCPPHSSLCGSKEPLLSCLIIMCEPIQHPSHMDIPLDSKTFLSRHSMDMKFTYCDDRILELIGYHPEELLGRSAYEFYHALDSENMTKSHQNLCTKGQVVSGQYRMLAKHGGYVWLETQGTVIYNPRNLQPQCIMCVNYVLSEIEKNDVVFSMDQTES
Chain of HIF2A N-terminal region (bHLH-PAS);BMAL1 N-terminal region (bHLH-PAS) (mouse;mouse) (Q9WTL8 68-488, chain 2 of 2): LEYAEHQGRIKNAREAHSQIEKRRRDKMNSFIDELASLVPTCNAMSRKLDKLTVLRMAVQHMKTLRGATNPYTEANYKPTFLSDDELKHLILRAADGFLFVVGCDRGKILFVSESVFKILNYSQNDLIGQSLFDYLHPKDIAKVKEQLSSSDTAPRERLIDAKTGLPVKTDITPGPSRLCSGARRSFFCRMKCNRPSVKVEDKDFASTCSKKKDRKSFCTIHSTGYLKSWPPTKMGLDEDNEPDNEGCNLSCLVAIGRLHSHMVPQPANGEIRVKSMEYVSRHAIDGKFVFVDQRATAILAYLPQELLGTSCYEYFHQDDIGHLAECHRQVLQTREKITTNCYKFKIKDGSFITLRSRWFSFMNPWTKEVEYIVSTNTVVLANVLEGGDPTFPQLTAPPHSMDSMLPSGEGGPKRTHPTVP

Substance | Kd (ka 2.10e5 1/(M*s), kd 7.85e-4 1/s) [nM] | Kd (ka 1.75e5 1/(M*s), kd 8.45e-4 1/s) [nM]
22-bp E-box duplex, SPR | 3.74 | –
22-bp HRE duplex, SPR | – | 4.84
